We go through one molecule from patent publication US20140370023A1 (HENRY M JACKSON FOUNDATION FOR THE ADVANCEMENT OF MILITARY …, published 2014).

For test [1], the target named is T1, human FLi1 protein with N-terminal FLAG tag (human, UniProt Q01543 1-452, limits assumed).
T1 construct: not shown: N-terminal FLAG tag
T1 sequence (looked up): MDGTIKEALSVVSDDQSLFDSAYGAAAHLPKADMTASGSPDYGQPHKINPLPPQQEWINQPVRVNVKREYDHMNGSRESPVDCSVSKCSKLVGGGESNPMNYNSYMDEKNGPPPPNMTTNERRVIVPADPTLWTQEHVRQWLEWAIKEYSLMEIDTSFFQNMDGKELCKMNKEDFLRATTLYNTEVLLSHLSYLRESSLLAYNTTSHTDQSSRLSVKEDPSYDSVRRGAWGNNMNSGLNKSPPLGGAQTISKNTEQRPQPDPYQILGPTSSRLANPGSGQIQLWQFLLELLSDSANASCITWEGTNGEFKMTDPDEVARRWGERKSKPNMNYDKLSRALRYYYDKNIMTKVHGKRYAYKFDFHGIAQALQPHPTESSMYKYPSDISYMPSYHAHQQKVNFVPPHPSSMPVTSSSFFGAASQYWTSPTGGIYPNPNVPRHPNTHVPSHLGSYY
The experiment in a line: Western blot of transiently expressed FLAG-tagged protein. As for the experimental part: Therefore, the 9FY antibody was tested to see if it can discriminate between human ERG3 and the human FLi1 protein using Western blot assays. In this assay, transiently expressed human ERG3 (encoded by TMPRSS2/ERG3 construct) or human FLi1 protein was evaluated with the 9FY antibody.

For test [2], the target named is T2, immunizing polypeptide (amino acids 42-66 of SEQ ID NO: 1) (human).
T2 construct: Chemically synthesized; also called ERG 42-66 polypeptide
T2 peptide: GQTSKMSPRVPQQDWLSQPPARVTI
The experiment in a line: direct ELISA, peptides plated at 1 to 1000 ng/mL (x axis 'ERG, ng/mL', log scale), probed with 9FY at 1:10,000, absorbance at 450 nm. As for the experimental part: Various concentrations of the immunizing polypeptide and two control polypeptides were plated in wells for ELISA and were probed with 1:10,000 dilution of 9FY antibody. Y-axis indicates absorbance values at 450 nm. On the X-axis the log 10 concentration of the ERG immunizing polypeptide and control polypeptides is shown in ng/ml. […] In sandwich ELISA assay, ERG3 protein lysates were plated in multi-well format plates and were assayed with various concentrations of 9FY antibody in the presence (white bar) or absence of the immunizing polypeptide (shaded bar). Fold dilution is marked on the X-axis. Antibody titration values are marked by shaded bars.
In an ELISA assay, we assessed the sensitivity and specificity of the 9FY antibody measuring the titer of various concentrations of the immunizing polypeptide (i.e. amino acids 42-66 of SEQ ID NO: 1). For direct ELISA, plates were first coated with 100 μl of ERG3 antigen at 1 ng/ml, 10 ng/ml, 100 ng/ml and 1 μg/ml and incubated for 16 h at 4° C. on a shaker before washing the plate five times with PBSt (300 μl/well). […] Absorbance was measured at 450 nm on a […]® Ascent (Thermo Scientific, Waltham, Mass.) ELISA plate reader according to the manufacturer's recommendation and the absorbance were plotted against antibody dilution. […]

Test [3] concerns the target T3, human ERG3 (wild type ERG3 protein, 53 kDa) (human, UniProt P11308 1-479).
T3 construct: Expressed heterologously in HEK-293 cells (pIRES-EGFP(CMV)-ERG3), as protein lysate in the ELISA, or in LNCaP cells by Ad-ERG3 adenovirus; also called ERG3 antigen
T3 sequence: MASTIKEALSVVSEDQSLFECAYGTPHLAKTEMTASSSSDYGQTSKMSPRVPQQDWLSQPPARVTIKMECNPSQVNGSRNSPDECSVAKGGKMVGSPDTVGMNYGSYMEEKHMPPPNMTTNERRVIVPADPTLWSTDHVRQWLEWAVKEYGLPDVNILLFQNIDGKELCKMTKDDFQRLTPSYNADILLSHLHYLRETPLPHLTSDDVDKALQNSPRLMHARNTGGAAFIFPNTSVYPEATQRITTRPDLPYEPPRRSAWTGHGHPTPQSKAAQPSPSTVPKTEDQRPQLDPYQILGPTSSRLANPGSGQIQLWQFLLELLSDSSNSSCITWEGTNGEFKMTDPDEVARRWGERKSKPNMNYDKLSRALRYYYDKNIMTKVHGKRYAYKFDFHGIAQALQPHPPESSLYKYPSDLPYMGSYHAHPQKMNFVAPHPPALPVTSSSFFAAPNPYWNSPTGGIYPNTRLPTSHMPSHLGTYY
The experiment in a line: sandwich ELISA on ERG3 protein lysate, 9FY titrated by fold dilution, absorbance at 450 nm; competitor: immunizing polypeptide.

B1: 9FY antibody (monoclonal antibody produced by the hybridoma clone 9FY) (antibody, V domains shown)
VH: QIQLVQSGPDLKKPGETVKISCKASGYTFTNYGINWVKQAPGKGFKWMGWIDTYTGEPTYVDDFKGRFVFSLETSASTAYLQINNLKNEDTATYFCVRKRAYDYEIYWGQGTPLTVSS
VL: ENVLTQSPAIMSASLGEKVTLSCRASSSVYYMFWYQQKSDASPKLWIYYTSNLAPGVPARFSGSGSGNSYSLTISSVEGEDAATYYCLQFSTSPWTFGGGTKLEIKR
notes: Mouse (Balb/C) hybridoma antibody purified from ascites over Protein G; sub-type determined to be IgG; also called ERG-MAb; 9FY monoclonal antibody
For the molecule B1, the binding result is “no binding” in test [1], “binds” in test [2] and “binds” in test [3].
